Measured values published in article PMC6451128, “Structural and functional analysis of the nucleotide and DNA binding activities of the human PIF1 helicase”.

Columns and labels:
Settings in all cases: protein: recombinant; tags: His tag removed, GSRM left; label: 5' 32P (PNK)
hPIF1HD F573A = biological target: T1, hPIF1HD F573A (human, UniProt Q9H611 206-620, F573A); assay: EMSA; no nucleotide; 20 mM HEPES-NaOH pH 7.5 (Results say pH 7.2), 135 mM NaCl, 5% glycerol, 1 mM DTT, 1 mg/ml BSA, 20 min at 20 C; 0.4 nM T(35); G4 assay: 0.1 nM G4 DNA, 2% PEG 8000 instead of glycerol, 5 uM T(35) competitor
T1 sequence: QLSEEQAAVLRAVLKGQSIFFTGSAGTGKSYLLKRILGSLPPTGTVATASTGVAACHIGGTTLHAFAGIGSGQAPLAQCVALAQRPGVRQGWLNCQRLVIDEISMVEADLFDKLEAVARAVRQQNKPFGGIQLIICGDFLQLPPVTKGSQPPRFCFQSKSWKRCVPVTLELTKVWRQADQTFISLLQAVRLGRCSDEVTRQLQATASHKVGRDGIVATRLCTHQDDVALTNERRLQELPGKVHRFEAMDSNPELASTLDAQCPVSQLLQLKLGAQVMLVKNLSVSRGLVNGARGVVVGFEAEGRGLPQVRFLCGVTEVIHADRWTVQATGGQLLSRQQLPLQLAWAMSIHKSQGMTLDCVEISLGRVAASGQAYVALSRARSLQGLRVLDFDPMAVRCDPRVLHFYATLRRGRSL

hPIF1HD N486A = biological target: T2, hPIF1HD N486A (human, UniProt Q9H611 206-620, N486A); assay: as above
T2 sequence: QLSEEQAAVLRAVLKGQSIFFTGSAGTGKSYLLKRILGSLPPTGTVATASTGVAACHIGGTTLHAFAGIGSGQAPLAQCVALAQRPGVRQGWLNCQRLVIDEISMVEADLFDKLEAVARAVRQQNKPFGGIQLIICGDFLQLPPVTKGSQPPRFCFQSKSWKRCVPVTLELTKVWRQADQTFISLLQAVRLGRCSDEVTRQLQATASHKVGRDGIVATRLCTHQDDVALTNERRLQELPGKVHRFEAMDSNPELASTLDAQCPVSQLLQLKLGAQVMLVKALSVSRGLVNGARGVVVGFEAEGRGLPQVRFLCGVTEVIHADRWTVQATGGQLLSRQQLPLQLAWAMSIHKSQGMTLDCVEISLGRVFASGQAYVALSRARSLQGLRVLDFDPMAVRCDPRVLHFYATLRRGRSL

hPIF1HD K556A = biological target: T3, hPIF1HD K556A (human, UniProt Q9H611 206-620, K556A); assay: EMSA; no nucleotide; greatest defect; 20 mM HEPES-NaOH pH 7.5 (Results say pH 7.2), 135 mM NaCl, 5% glycerol, 1 mM DTT, 1 mg/ml BSA, 20 min at 20 C; 0.4 nM T(35); G4 assay: 0.1 nM G4 DNA, 2% PEG 8000 instead of glycerol, 5 uM T(35) competitor
T3 sequence: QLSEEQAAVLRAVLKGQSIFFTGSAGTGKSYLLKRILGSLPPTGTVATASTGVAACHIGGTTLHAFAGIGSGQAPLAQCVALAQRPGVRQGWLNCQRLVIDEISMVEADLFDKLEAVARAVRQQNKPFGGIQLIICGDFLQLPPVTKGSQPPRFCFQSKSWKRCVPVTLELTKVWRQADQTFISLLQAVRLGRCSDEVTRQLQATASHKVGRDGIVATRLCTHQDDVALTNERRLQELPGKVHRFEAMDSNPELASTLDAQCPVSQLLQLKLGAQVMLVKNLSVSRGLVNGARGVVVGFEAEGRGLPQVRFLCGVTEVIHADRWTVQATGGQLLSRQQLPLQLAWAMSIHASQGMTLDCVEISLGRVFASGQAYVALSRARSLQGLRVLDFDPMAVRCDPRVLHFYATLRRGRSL

Measured: binding signal

B1: poly-T(35) (ssDNA)
DNA: TTTTTTTTTTTTTTTTTTTTTTTTTTTTTTTTTTT
> 50 fold decrease in affinity vs WT: hPIF1HD F573A | hPIF1HD N486A | hPIF1HD K556A
